Test results as given in the Human Domainome abundance scans (Beltran et al. 2025).
± gives the uncertainty stated by the source.

B1: Proto-oncogene vav, residues 782 to 842; numbered along this chain, P15498 (parent)
chain: KYFGTAKARYDFCARDRSELSLKEGDIIKILNKKGQQGWWRGEIYGRVGWFPANYVEEDYS

Variants of: B1
Assay: abundance fitness (aPCA) (normalised: wild type 0, dead -1); higher = more abundant; growth selection in yeast, the domain comes from the species named
Conditions: Homo sapiens

Variant | abundance fitness
KYFGTAKARYDFCARDRSELSLKEGDIIKILNKKGQQGWWRGEIYGRVGSFPANYVEEDYS [W50S] | -0.584 ± 0.11
KYFGTAKARYDFCARDRSELSLKEGDIIKILNKKGQQGWWRGEIYGRVGYFPANYVEEDYS [W50Y] | -0.17 ± 0.11
KYFGTAKARYDFCARDRSELSLKEGDIIKILNKKGQQGWWRGEIYGRVGTFPANYVEEDYS [W50T] | -0.645 ± 0.17
KYFGTAKARYDFCARDRSELSLKEGDIIKILNKKGQQGWWRGEIYGRVGVFPANYVEEDYS [W50V] | -0.452 ± 0.098
KYFGTAKARYDFCARDRSELSLKEGDIIKILNKKGQQGWWRGEIYGRVGWEPANYVEEDYS [F51E] | -0.913 ± 0.25
KYFGTAKARYDFCARDRSELSLKEGDIIKILNKKGQQGWWRGEIYGRVGWVPANYVEEDYS [F51V] | -0.684 ± 0.1
KYFGTAKARYDFCARDRSELSLKEGDIIKILNKKGQQGWWRGEIYGRVGWTPANYVEEDYS [F51T] | -0.799 ± 0.15
KYFGTAKARYDFCARDRSELSLKEGDIIKILNKKGQQGWWRGEIYGRVGWDPANYVEEDYS [F51D] | -0.951 ± 0.3
KYFGTAKARYDFCARDRSELSLKEGDIIKILNKKGQQGWWRGEIYGRVGWIPANYVEEDYS [F51I] | -0.691 ± 0.25
KYFGTAKARYDFCARDRSELSLKEGDIIKILNKKGQQGWWRGEIYGRVGWWPANYVEEDYS [F51W] | -0.988 ± 0.2
KYFGTAKARYDFCARDRSELSLKEGDIIKILNKKGQQGWWRGEIYGRVGWPPANYVEEDYS [F51P] | -0.733 ± 0.19
KYFGTAKARYDFCARDRSELSLKEGDIIKILNKKGQQGWWRGEIYGRVGWGPANYVEEDYS [F51G] | -0.838 ± 0.1
KYFGTAKARYDFCARDRSELSLKEGDIIKILNKKGQQGWWRGEIYGRVGWRPANYVEEDYS [F51R] | -0.78 ± 0.12
KYFGTAKARYDFCARDRSELSLKEGDIIKILNKKGQQGWWRGEIYGRVGWLPANYVEEDYS [F51L] | -0.813 ± 0.088
KYFGTAKARYDFCARDRSELSLKEGDIIKILNKKGQQGWWRGEIYGRVGWCPANYVEEDYS [F51C] | -0.859 ± 0.18
KYFGTAKARYDFCARDRSELSLKEGDIIKILNKKGQQGWWRGEIYGRVGWSPANYVEEDYS [F51S] | -0.857 ± 0.15
KYFGTAKARYDFCARDRSELSLKEGDIIKILNKKGQQGWWRGEIYGRVGWNPANYVEEDYS [F51N] | -0.489 ± 0.33
KYFGTAKARYDFCARDRSELSLKEGDIIKILNKKGQQGWWRGEIYGRVGWAPANYVEEDYS [F51A] | -0.984 ± 0.27
KYFGTAKARYDFCARDRSELSLKEGDIIKILNKKGQQGWWRGEIYGRVGWMPANYVEEDYS [F51M] | -0.905 ± 0.15
KYFGTAKARYDFCARDRSELSLKEGDIIKILNKKGQQGWWRGEIYGRVGWQPANYVEEDYS [F51Q] | -0.759 ± 0.19
KYFGTAKARYDFCARDRSELSLKEGDIIKILNKKGQQGWWRGEIYGRVGWFPANKVEEDYS [Y55K] | -0.388 ± 0.11
KYFGTAKARYDFCARDRSELSLKEGDIIKILNKKGQQGWWRGEIYGRVGWFPANMVEEDYS [Y55M] | -0.012 ± 0.078

Variant | abundance fitness
KYFGTAKARYDFCARDRSELSLKEGDIIKILNKKGQQGWWRGEIYGRVGWFPANSVEEDYS [Y55S] | -0.206 ± 0.094
KYFGTAKARYDFCARDRSELSLKEGDIIKILNKKGQQGWWRGEIYGRVGWFPANRVEEDYS [Y55R] | -0.135 ± 0.057
KYFGTAKARYDFCARDRSELSLKEGDIIKILNKKGQQGWWRGEIYGRVGWFPANLVEEDYS [Y55L] | 0.058 ± 0.05
KYFGTAKARYDFCARDRSELSLKEGDIIKILNKKGQQGWWRGEIYGRVGWFPANGVEEDYS [Y55G] | -0.396 ± 0.11
KYFGTAKARYDFCARDRSELSLKEGDIIKILNKKGQQGWWRGEIYGRVGWFPANTVEEDYS [Y55T] | -0.206 ± 0.097
KYFGTAKARYDFCARDRSELSLKEGDIIKILNKKGQQGWWRGEIYGRVGWFPANEVEEDYS [Y55E] | -0.763 ± 0.23
KYFGTAKARYDFCARDRSELSLKEGDIIKILNKKGQQGWWRGEIYGRVGWFPANDVEEDYS [Y55D] | -0.736 ± 0.19
KYFGTAKARYDFCARDRSELSLKEGDIIKILNKKGQQGWWRGEIYGRVGWFPANQVEEDYS [Y55Q] | -0.457 ± 0.14
KYFGTAKARYDFCARDRSELSLKEGDIIKILNKKGQQGWWRGEIYGRVGWFPANHVEEDYS [Y55H] | -0.226 ± 0.14
KYFGTAKARYDFCARDRSELSLKEGDIIKILNKKGQQGWWRGEIYGRVGWFPANPVEEDYS [Y55P] | -0.925 ± 0.37
KYFGTAKARYDFCARDRSELSLKEGDIIKILNKKGQQGWWRGEIYGRVGWFPANCVEEDYS [Y55C] | 0.093 ± 0.11
KYFGTAKARYDFCARDRSELSLKEGDIIKILNKKGQQGWWRGEIYGRVGWFPANAVEEDYS [Y55A] | 0.053 ± 0.073
KYFGTAKARYDFCARDRSELSLKEGDIIKILNKKGQQGWWRGEIYGRVGWFPANFVEEDYS [Y55F] | -0.258 ± 0.16
KYFGTAKARYDFCARDRSELSLKEGDIIKILNKKGQQGWWRGEIYGRVGWFAANYVEEDYS [P52A] | -0.909 ± 0.22
KYFGTAKARYDFCARDRSELSLKEGDIIKILNKKGQQGWWRGEIYGRVGWFVANYVEEDYS [P52V] | -0.787 ± 0.15
KYFGTAKARYDFCARDRSELSLKEGDIIKILNKKGQQGWWRGEIYGRVGWFNANYVEEDYS [P52N] | -0.761 ± 0.29
KYFGTAKARYDFCARDRSELSLKEGDIIKILNKKGQQGWWRGEIYGRVGWFRANYVEEDYS [P52R] | -0.89 ± 0.099
KYFGTAKARYDFCARDRSELSLKEGDIIKILNKKGQQGWWRGEIYGRVGWFDANYVEEDYS [P52D] | -0.929 ± 0.36
KYFGTAKARYDFCARDRSELSLKEGDIIKILNKKGQQGWWRGEIYGRVGWFQANYVEEDYS [P52Q] | -0.528 ± 0.13
KYFGTAKARYDFCARDRSELSLKEGDIIKILNKKGQQGWWRGEIYGRVGWFMANYVEEDYS [P52M] | -0.38 ± 0.19
KYFGTAKARYDFCARDRSELSLKEGDIIKILNKKGQQGWWRGEIYGRVGWFTANYVEEDYS [P52T] | -0.778 ± 0.17
